Data reported in article PMC9482650, “Quantitative fragmentomics allow affinity mapping of interactomes” (Nature Communications, 2022).

T1: FRMPD1, Q5SYB0
T1 sequence (Q5SYB0 52-145, limits assumed, looked up): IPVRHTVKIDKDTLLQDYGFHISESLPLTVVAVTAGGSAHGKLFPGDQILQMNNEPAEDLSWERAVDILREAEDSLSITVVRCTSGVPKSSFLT

T2: PDZD7_3, Q9H5P4
T2 sequence (Q9H5P4 857-944, limits assumed, looked up): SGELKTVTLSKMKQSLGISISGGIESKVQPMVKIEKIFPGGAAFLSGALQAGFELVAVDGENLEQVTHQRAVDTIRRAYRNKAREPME

T3: NHERF3_3, Q5T2W1
T3 sequence (Q5T2W1 238-333, limits assumed, looked up): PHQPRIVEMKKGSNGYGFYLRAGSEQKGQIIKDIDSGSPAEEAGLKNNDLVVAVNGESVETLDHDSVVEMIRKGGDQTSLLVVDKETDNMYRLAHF

T4: ARHGAP21, Q5T5U3
T4 sequence (Q5T5U3 45-169, limits assumed, looked up): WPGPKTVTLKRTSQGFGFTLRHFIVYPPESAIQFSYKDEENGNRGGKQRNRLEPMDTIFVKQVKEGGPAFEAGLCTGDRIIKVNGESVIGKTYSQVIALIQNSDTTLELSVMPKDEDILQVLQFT

T5: HTRA3, P83110
T5 sequence (P83110 354-453, limits assumed, looked up): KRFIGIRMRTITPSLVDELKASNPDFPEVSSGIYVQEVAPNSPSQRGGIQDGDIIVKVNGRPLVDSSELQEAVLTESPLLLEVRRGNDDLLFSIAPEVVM

T6: LRRC7, Q96NW7
T6 sequence (Q96NW7 1440-1537, limits assumed, looked up): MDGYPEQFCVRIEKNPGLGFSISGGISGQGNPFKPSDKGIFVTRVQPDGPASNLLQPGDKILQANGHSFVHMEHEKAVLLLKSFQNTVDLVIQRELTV

T7: GRIP1_3, Q9Y3R0
T7 sequence (Q9Y3R0 247-346, limits assumed, looked up): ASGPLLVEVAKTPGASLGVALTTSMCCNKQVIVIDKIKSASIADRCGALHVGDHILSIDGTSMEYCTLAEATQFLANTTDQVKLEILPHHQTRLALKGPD

T8: PDZD2_2, O15018
T8 sequence (O15018 329-429, limits assumed, looked up): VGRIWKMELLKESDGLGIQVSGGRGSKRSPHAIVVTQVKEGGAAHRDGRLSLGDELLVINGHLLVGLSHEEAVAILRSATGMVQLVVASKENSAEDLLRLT

T9: APBA2_1, Q99767
T9 sequence (Q99767 563-664, limits assumed, looked up): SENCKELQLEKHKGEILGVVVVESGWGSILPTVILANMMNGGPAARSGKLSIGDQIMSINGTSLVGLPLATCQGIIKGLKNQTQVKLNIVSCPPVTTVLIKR

T10: LNX2_3, Q8N448
T10 sequence (Q8N448 463-564, limits assumed, looked up): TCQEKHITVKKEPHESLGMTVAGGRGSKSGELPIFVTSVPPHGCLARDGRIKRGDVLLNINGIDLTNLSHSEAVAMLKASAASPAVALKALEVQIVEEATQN

T11: APBA2_2, Q99767
T11 sequence (Q99767 654-744, limits assumed, looked up): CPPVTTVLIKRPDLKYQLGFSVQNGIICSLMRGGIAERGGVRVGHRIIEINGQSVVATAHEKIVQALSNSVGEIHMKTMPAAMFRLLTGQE

T12: NHERF3_4, Q5T2W1
T12 sequence (Q5T2W1 373-468, limits assumed, looked up): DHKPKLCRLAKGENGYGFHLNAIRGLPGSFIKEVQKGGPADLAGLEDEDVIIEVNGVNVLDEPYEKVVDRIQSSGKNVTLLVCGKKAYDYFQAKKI

T13: TJP3_3, O95049
T13 sequence (O95049 375-456, limits assumed, looked up): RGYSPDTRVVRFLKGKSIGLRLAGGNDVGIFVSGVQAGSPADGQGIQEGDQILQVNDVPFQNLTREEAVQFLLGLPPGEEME


How the values were obtained:
Assay in all cases: holdup assay
Set-up in all cases: key: below the threshold = too weak to quantify, mostly under pKd 3.1 to 4
Conditions in all cases: plain residues with an end cap or a label only (N-terminal biotin on a linker: ado-ado)
FRMPD1, Q5SYB0 = molecular target: T1, FRMPD1, Q5SYB0
GRIP2_7, Q9C0E4 = molecular target: GRIP2_7, Q9C0E4
Chain of GRIP2_7, Q9C0E4 (Q9C0E4 934-1023): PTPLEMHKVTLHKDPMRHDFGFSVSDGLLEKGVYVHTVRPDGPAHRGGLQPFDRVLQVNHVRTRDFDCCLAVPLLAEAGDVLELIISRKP

PDZD7_3, Q9H5P4 = molecular target: T2, PDZD7_3, Q9H5P4
TJP1_3, Q07157 = molecular target: TJP1_3, Q07157
Chain of TJP1_3, Q07157 (Q07157 416-512): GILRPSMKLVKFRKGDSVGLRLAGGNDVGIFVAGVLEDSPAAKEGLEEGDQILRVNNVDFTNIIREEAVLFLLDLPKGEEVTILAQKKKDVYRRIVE

Inadl_9, Q8NI35 = molecular target: Inadl_9, Q8NI35
Chain of Inadl_9, Q8NI35 (Q8NI35 1530-1615): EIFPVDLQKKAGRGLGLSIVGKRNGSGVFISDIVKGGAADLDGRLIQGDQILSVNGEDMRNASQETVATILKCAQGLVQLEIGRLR

MAST1, Q9Y2H9 = molecular target: MAST1, Q9Y2H9
Chain of MAST1, Q9Y2H9 (Q9Y2H9 962-1065): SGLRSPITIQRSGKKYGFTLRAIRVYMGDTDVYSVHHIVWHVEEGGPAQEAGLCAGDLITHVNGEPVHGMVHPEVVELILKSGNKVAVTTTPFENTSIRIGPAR

NHERF3_3, Q5T2W1 = molecular target: T3, NHERF3_3, Q5T2W1
GOPC, Q9HD26 = molecular target: GOPC, Q9HD26
FRMPD3, Q5JV73 = molecular target: FRMPD3, Q5JV73
Chain of FRMPD3, Q5JV73 (Q5JV73 12-100): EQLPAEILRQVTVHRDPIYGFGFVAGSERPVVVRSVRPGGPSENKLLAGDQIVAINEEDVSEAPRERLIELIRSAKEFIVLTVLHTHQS

ARHGAP21, Q5T5U3 = molecular target: T4, ARHGAP21, Q5T5U3
Inadl_5, Q8NI35 = molecular target: Inadl_5, Q8NI35
Chain of Inadl_5, Q8NI35 (Q8NI35 673-780): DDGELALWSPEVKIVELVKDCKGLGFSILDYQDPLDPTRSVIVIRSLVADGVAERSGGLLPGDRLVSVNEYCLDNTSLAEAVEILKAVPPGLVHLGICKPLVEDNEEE

HTRA3, P83110 = molecular target: T5, HTRA3, P83110
LNX1_1, Q8TBB1 = molecular target: LNX1_1, Q8TBB1
Chain of LNX1_1, Q8TBB1 (Q8TBB1 261-371): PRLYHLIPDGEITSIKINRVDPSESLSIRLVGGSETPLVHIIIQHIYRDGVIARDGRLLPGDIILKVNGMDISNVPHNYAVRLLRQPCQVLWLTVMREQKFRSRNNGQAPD

LRRC7, Q96NW7 = molecular target: T6, LRRC7, Q96NW7
IL16_3, Q14005 = molecular target: IL16_3, Q14005
Chain of IL16_3, Q14005 (Q14005 1107-1207): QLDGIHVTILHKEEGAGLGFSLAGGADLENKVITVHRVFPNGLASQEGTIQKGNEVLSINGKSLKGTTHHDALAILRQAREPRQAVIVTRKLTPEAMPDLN

GRIP1_3, Q9Y3R0 = molecular target: T7, GRIP1_3, Q9Y3R0
PDZD2_2, O15018 = molecular target: T8, PDZD2_2, O15018
APBA2_1, Q99767 = molecular target: T9, APBA2_1, Q99767
DLG1_1, Q12959 = molecular target: DLG1_1, Q12959
LNX2_3, Q8N448 = molecular target: T10, LNX2_3, Q8N448
APBA2_2, Q99767 = molecular target: T11, APBA2_2, Q99767
Inadl_3, Q8NI35 = molecular target: Inadl_3, Q8NI35
Chain of Inadl_3, Q8NI35 (Q8NI35 359-469): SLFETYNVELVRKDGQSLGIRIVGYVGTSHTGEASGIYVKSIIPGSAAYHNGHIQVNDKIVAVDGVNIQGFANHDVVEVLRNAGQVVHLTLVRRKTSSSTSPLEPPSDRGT

DLG2_3, Q15700 = molecular target: DLG2_3, Q15700
NHERF3_4, Q5T2W1 = molecular target: T12, NHERF3_4, Q5T2W1
TJP3_3, O95049 = molecular target: T13, TJP3_3, O95049

Binder | pKd (FRMPD1, Q5SYB0) | pKd (GRIP2_7, Q9C0E4) | pKd (PDZD7_3, Q9H5P4) | pKd (TJP1_3, Q07157) | pKd (Inadl_9, Q8NI35) | pKd (MAST1, Q9Y2H9) | pKd (NHERF3_3, Q5T2W1) | pKd (GOPC, Q9HD26) | pKd (FRMPD3, Q5JV73) | pKd (ARHGAP21, Q5T5U3) | pKd (Inadl_5, Q8NI35) | pKd (HTRA3, P83110) | pKd (LNX1_1, Q8TBB1) | pKd (LRRC7, Q96NW7) | pKd (IL16_3, Q14005) | pKd (GRIP1_3, Q9Y3R0) | pKd (PDZD2_2, O15018) | pKd (APBA2_1, Q99767) | pKd (DLG1_1, Q12959) | pKd (LNX2_3, Q8N448) | other results
RGKNRRQSIF [CDK18, Q07002] | below the threshold | below the threshold | below the threshold | below the threshold | below the threshold | 4.15 | below the threshold | below the threshold | below the threshold | below the threshold | below the threshold | below the threshold | 3.95 | below the threshold | below the threshold | below the threshold | below the threshold | below the threshold | below the threshold | below the threshold | pKd (APBA2_2, Q99767): 3.5; pKd (Inadl_3, Q8NI35): below the threshold; pKd (DLG2_3, Q15700): 4.11; pKd (NHERF3_4, Q5T2W1): below the threshold; pKd (TJP3_3, O95049): below the threshold
AKADAQESRL [PLCB2, Q00722] | below the threshold | below the threshold | 4.29 | below the threshold | below the threshold | 4.85 | 3.85 | 4.1 | below the threshold | below the threshold | below the threshold | below the threshold | 3.58 | below the threshold | below the threshold | below the threshold | below the threshold | below the threshold | below the threshold | below the threshold | pKd (APBA2_2, Q99767): below the threshold; pKd (Inadl_3, Q8NI35): below the threshold; pKd (DLG2_3, Q15700): below the threshold; pKd (NHERF3_4, Q5T2W1): below the threshold; pKd (TJP3_3, O95049): below the threshold
QLGSPTADLA [SIPA1, Q96FS4] | below the threshold | below the threshold | below the threshold | below the threshold | below the threshold | 3.84 | below the threshold | below the threshold | below the threshold | below the threshold | below the threshold | below the threshold | below the threshold | below the threshold | below the threshold | below the threshold | below the threshold | below the threshold | below the threshold | below the threshold | pKd (APBA2_2, Q99767): below the threshold; pKd (Inadl_3, Q8NI35): below the threshold; pKd (DLG2_3, Q15700): 3.57; pKd (NHERF3_4, Q5T2W1): below the threshold; pKd (TJP3_3, O95049): below the threshold
VISSDDLTEL [CAPN6, Q9Y6Q1] | below the threshold | below the threshold | 3.87 | below the threshold | below the threshold | 4.99 | below the threshold | below the threshold | 3.63 | below the threshold | below the threshold | below the threshold | below the threshold | below the threshold | below the threshold | below the threshold | 4.39 | below the threshold | below the threshold | below the threshold | pKd (APBA2_2, Q99767): below the threshold; pKd (Inadl_3, Q8NI35): below the threshold; pKd (DLG2_3, Q15700): 3.53; pKd (NHERF3_4, Q5T2W1): below the threshold; pKd (TJP3_3, O95049): below the threshold

Now from value to binder, other results behind:

pKd (FRMPD1, Q5SYB0) | pKd (GRIP2_7, Q9C0E4) | pKd (PDZD7_3, Q9H5P4) | pKd (TJP1_3, Q07157) | pKd (Inadl_9, Q8NI35) | pKd (MAST1, Q9Y2H9) | pKd (NHERF3_3, Q5T2W1) | pKd (GOPC, Q9HD26) | pKd (FRMPD3, Q5JV73) | pKd (ARHGAP21, Q5T5U3) | pKd (Inadl_5, Q8NI35) | pKd (HTRA3, P83110) | pKd (LNX1_1, Q8TBB1) | pKd (LRRC7, Q96NW7) | pKd (IL16_3, Q14005) | pKd (GRIP1_3, Q9Y3R0) | pKd (PDZD2_2, O15018) | pKd (APBA2_1, Q99767) | pKd (DLG1_1, Q12959) | pKd (LNX2_3, Q8N448) | Binder | other results
below the threshold | 3.66 | 4.53 | below the threshold | 3.58 | 4.48 | below the threshold | 4.67 | below the threshold | 4.01 | 3.49 | below the threshold | 4.06 | below the threshold | below the threshold | below the threshold | below the threshold | below the threshold | 5.07 | 3.51 | THHRKIHTRV [ZNF599, Q96NL3] | pKd (APBA2_2, Q99767): 3.49; pKd (Inadl_3, Q8NI35): below the threshold; pKd (DLG2_3, Q15700): 4.41; pKd (NHERF3_4, Q5T2W1): 3.55; pKd (TJP3_3, O95049): below the threshold
below the threshold | 4.21 | 5.12 | below the threshold | 4.23 | 4.25 | 4.12 | 4.16 | 4.26 | 4.88 | below the threshold | 5.43 | 4.13 | 4.31 | below the threshold | below the threshold | 5.89 | below the threshold | below the threshold | below the threshold | NKSEPFLTWL [WWTR1, Q9GZV5] | pKd (APBA2_2, Q99767): below the threshold; pKd (Inadl_3, Q8NI35): 4.35; pKd (DLG2_3, Q15700): below the threshold; pKd (NHERF3_4, Q5T2W1): 4.15; pKd (TJP3_3, O95049): 4.15
